Earlier results, collected in patent US12129294B2, “Methods of treatment of diseases in which IL-13 activity is detrimental using anti-IL-13 antibodies” (AbbVie Inc., priority 2016, dated 2024).

Test system: eosinophilic esophagitis (EoE)
Conditions: QAX576 study, N = 17, cited from earlier work

B1: QAX576: anti-IL-13 antibody dectrekumab (QAX-576), comparator study in Table 6 (antibody, chains of the INN, looked up, V domains shown)
VH: EVQLVESGGGVVQPGRSLRLSCAASGFTFSSYGMHWVRQAPGKGLEWVAIIWYDGSNKYYADSVKGRFTISRDNSKNTLYLQMNSLRAEDTAVYYCARLWFGDLDAFDIWGQGTMVTVSS
VL: EIVLTQSPATLSLSPGERAILSCRAGQSVSSYLVWYQQKPGQAPRLLIYDASNRATGIPARFSGSGSGTDFTLTISSLEPEDFAVYYCQQRSSWPPVYTFGQGTKLEIK
EEOC Mean BL (baseline): 35.4 | EEOC Peak BL (baseline): 88.2 | EEOC Mean post (post treatment): 14.6
